Consider three molecules from article PMC8660260 (2021).

For assay [1], the target named is T1, NSP12 peptide on HLA-A*02:01 (human).
T1 peptide: TMADLVYAL
The experiment in a line: activation reporter or marker.

For assay [2], the target named is T2, NSP12 peptide on HLA-A*02:01 (human).
T2 peptide: FVDGVPFVV
The experiment in a line: activation reporter or marker.

B1: CoVTCR 12 (TCR)
alpha TRAV17 TRAJ57 CDR3: CATVLPTQGGSEKLVF
beta TRBV18 TRBJ1-1 CDR3: CASSLTVNMNTEAFF
Take B1: the binding result in assay [1] is recorded as “recognises”.

B2: CoVTCR 19 (TCR)
alpha TRAV35 TRAJ43 CDR3: CAGQLARDMRF
beta TRBV13 TRBJ2-7 CDR3: CASRWAGGTAYEQYF
On to B2, for which the binding result in assay [2] is recorded as “recognises”.

B3: CoVTCR 18 (TCR)
alpha TRAV12-1 TRAJ45 CDR3: CVLPSGGGADGLTF
beta TRBV5-1 TRBJ2-1 CDR3: CASTGLAGGPYNEQFF
For the molecule B3, the binding result in assay [2] is listed as “recognises”.
